Source: PMC9674263 (Proceedings of the National Academy of Sciences of the …, 2022)

Biological target: the molecule itself
Assay: native gel or EMSA

B1: endogenous PLOD2 of HCC38 cells (enzyme, human (endogenous in HCC38), UniProt O00469 26-737, looked up)
chain: ADSEKPSSIPTDKLLVITVATKESDGFHRFMQSAKYFNYTVKVLGQGEEWRGGDGINSIGGGQKVRLMKEVMEHYADQDDLVVMFTECFDVIFAGGPEEVLKKFQKANHKVVFAADGILWPDKRLADKYPVVHIGKRYLNSGGFIGYAPYVNRIVQQWNLQDNDDDQLFYTKVYIDPLKREAINITLDHKCKIFQTLNGAVDEVVLKFENGKARAKNTFYETLPVAINGNGPTKILLNYFGNYVPNSWTQDNGCTLCEFDTVDLSAVDVHPNVSIGVFIEQPTPFLPRFLDILLTLDYPKEALKLFIHNKEVYHEKDIKVFFDKAKHEIKTIKIVGPEENLSQAEARNMGMDFCRQDEKCDYYFSVDADVVLTNPRTLKILIEQNRKIIAPLVTRHGKLWSNFWGALSPDGYYARSEDYVDIVQGNRVGVWNVPYMANVYLIKGKTLRSEMNERNYFVRDKLDPDMALCRNAREMGVFMYISNRHEFGRLLSTANYNTSHYNNDLWQIFENPVDWKEKYINRDYSKIFTENIVEQPCPDVFWFPIFSEKACDELVEEMEHYGKWSGGKHHDSRISGGYENVPTDDIHMKQVDLENVWLHFIREFIAPVTLKVFAGYYTKGFALLNFVVKYSPERQRSLRPHHDASTFTINIALNNVGEDFQGGGCKFLRYNCSIESPRKGWSFMHPGRLTHLHEGLPVKNGTRYIAVSFIDP
- stoichiometry N: 2
